Measurements as given in the DeepSol protein solubility set.

Assay: soluble on expression in E. coli; label from the status in PepcDB or PDB records

In the case of “MGSDKIHHHHHHMNDYYDLLDRVKILIKLGRYKEALRIIDEVIEDSPDVSFLYYKISILFTCRRFEEAKSTLNTAISIFPGSTVFRIWKMVLALETKDVLSMAQINFNDNSVASSQLNAPFQSMDFNDNYAYTFSKSVRDLIMKLGKSAIYCDLQQLKEKILTERISTETINGLYTDIMDYRNRDIVELSSYGRAFYFYSIGRIGDSFIEISSLPDHEVFKAFILGKYSDFLKQTYEIADPYTRAVRFHILRLRELSLKEIETASYIGMDELVMSKRIIEFNGSSLSTQVVVNKVPESHL”, the “soluble on expression in E. coli” value is reported as “not soluble”.
In the case of “MAHHHHHHMFHGFPDVQIAPRDTVISEEFHLHDKEGRMGTLLQPMAQRMRISFSALTCLGSYAQNATCHYALFGRLCGVQLNETIEVTNVLPPVINPRPPEDETPEQREKRLLAQQREERQMYERMGKMFFKEELDSYHVGYFAICSAYTNAPYSVRTVQQLAQLALDGNPSVLVVYDPFRTSLMGKLYLRAFVPTREYVEFYTRLTDKRNILRENRLMRECNVGKGGVLREVKVEVDVDEYQLLCLSGFNVAPLSSTCRTLHSEVMTDYMAALIESVRHNADELSRGLHSESYFSQKEESYGPLGQRIDTLLKLMQLREQTQHLESLCDGVLLNTSLLRDL”, the “soluble on expression in E. coli” value is reported as “soluble”.
For “SSFFGFGQTAEIDIVLNDAETRKKVEHKTEDGKKDKYFLFYDGETVSGKVNVTLKTPGKRLEHYGIKIEFVGQIELYYDRGNHHEFVSLVKDLARPGELSQSQTFDFELTHVEKPYESYTGQNVKLRYFLRATISRRLNDISKEMDIVVQTLCTYPEINSSIKMEVGIEDCLHIEFEYNKSKYHLRDVIVGKIYFLLVRIKIKHMEIDIIKRETTGTGPSVYHENDTIAKYEIMDGAPVRGESIPIRLFLAGYEMTPTMRDINKKFSVRYYLNLVLIDEEERRYFKQQEITLWRKGDIVRRSMSQQATIAAQRYEGSNPEPTSAQAKEETD”, the “soluble on expression in E. coli” value was “soluble”.
In the case of “TVPITSAKAAELPPGNYRLVVFELENFQGRRAEFSGECSNLADRGFDRVRSIIVSAGPWVAFEQSNFRGEMFILEKGEYPRWNTWSSSYRSDRLMSFRPIKMDAQEHKISLFEGANFKGNTIEIQGDDAPSLWVYGFSDRVGSVKVSSGTWVGYQYPGYRGYQYLLEPGDFRHWNEWGAFQPQMQSLRRLRDKQWHLEGSFPVLATEPPK”, the “soluble on expression in E. coli” value is reported as “soluble”.
For “MAHHHHHHMLRGVTIKCGNVTNAVRVPSRFISMAPTRNEEKATQKRNKWEYILSLDEALYLSKEMGIKTTTEVQKIVMRSPPFSPDMSPFLIDNFLCSANRGSHSDEIAQIDQKLKALEERGDNSQESEKGEVQVALHNNEMNDTAQNREEDIINKILIDKFNKKRGKTFIHNDMEWLEESEGIGTNKRSSAYVYIKRGSGIVKVNDEEDLYIRWPYFYNRMDVLEPFYVTNTACVFDVFIKLKGGGISGQSKAARLAVGRALLNACPLIYDELKQHHILYEDMRQKLPKMPGRKKSRAMKQWSKR”, the “soluble on expression in E. coli” value was “not soluble”.
In the case of “MGSDKIHHHHHHMTTSITIGNFKGGVGKTTTCVTFSYLLNKAHRKTLLIDFDPQGNASEIIEKTFPVFKQKNSKSLTDGIKNLDLSESIAHVTDYLDLMPSDWSLSLLPDMLEDYKKSDRPLFLKTLLTKIRNDYDYILIDVPPTLSAYTNNAVLASDYVIMVMQTQEQSYSSSLKFVSYLQGLRKDYDKSFDLLGIIAYLVKKDGPVDHEVLKAANQAFGKALFHGNVFQRERVKRFGKSGIKDEDMWDKRALYMYQVVLDEALSRINLLEE”, the “soluble on expression in E. coli” value is reported as “not soluble”.
For “DIQMTQSPSSLSATLGGKVTITCKASQDINKYIAWYQHKPGKGPRLLIHYTSTLQPGNPSRFSGSGSGRDYSFSISNLEAEDIAIYYCLQYDNLQRTFGGGTKVEIKRADAAPTVSIFPPSSEQLTSGGASVVCFLNNFYPKDINVKWKIDGSERQNGVLNSWTDQDSKDSTYSMSSTLTLTKDEYERHNSYTCEATHKTSTSPIVKSFNRNE”, the “soluble on expression in E. coli” value was “soluble”.
With “MTKKVGIVDTTFARVDMASIAIKKLKELSPNIKIIRKTVPGIKDLPVACKKLLEEEGCDIVMALGMPGKAEKDKVCAHEASLGLMLAQLMTNKHIIEVFVHEDEAKDDKELDWLAKRRAEEHAENVYYLLFKPEYLTRMAGKGLRQGFEDAGPARE” the “soluble on expression in E. coli” value was “soluble”.
For “MRTLLITGPGGSGRTTVAAATALRASRTGTRTLVLSADRTDTLGAALGVPTGGAPVEAAPGLTAWRPDAADRFRADLTAFQDRAATALDFLGAARLDAEELTPLPGAEELALLRALRDAALSEAYDLLVVDLPPAPQALALLALPEELRRYLRRLLPPERQAARALRPVLGRLAGVPMPADWLYETAARWDVELAAVEAVVEDRATTVRLVAEPGPAGADAVRAAATGFALRAVRIDTLIANRLLPEEADDAWSAGLAAQQRKFLEEWRGEYRLHELPHLGHDPRGADDLAALAVPGVNDAPGPVEWSVADRLADDGVLVWHIPLPGAIRDELDLLRRGDELVVTAGQFRRIVPLPSALRRCTVAGAALREGELRIRFAPDPDLWPRERLEHHHHHH”, the “soluble on expression in E. coli” value was “soluble”.
In the case of “MMKRNLIGAFIAASTLLSSSVAFSQDKPAYETGMIPADHIMVPDGDIQASIFLISDANGWTEADETRAKALVEKGAAVVGIDFKEYLKALEADDDECIYMISDIESLSQQIQRTAGTGSYRLPIVTGIGKGGTLALAMIAQSPVSTVREAVAVDPKAGLPLEKILCTPATKDKVDGETVYGLTDGALPAPVSVIFTPDADQKGRDHVNALVKLHSDIEVTDVTDKADEVLTQTLSDKVDAAGDSGNPLGLPITVLEAKPVMDTMAVIYSGDGGWRDLDEEVGSALQKQGVPVIGVDALRYFWKEKDPKEVAGDLARIIDTYRKEWKVKNVVLIGYSFGADIIPATYNLLPDRVKSSVAQLSLLGLSNEVDFEISVQGWLGVAGEGKGGKTVDDIAKIDPKLVQCVYGTEEEDEDPCPGLKAKGVETIGIEGGHHFDEDYEALAKRIVTSLKTRLAKLEHHHHHH”, the “soluble on expression in E. coli” value is reported as “soluble”.
For “MGHHHHHHSHKNMKPIGCNAVQLTGGEPTLRDDLIDIIRMIKEEGYDHIQLNTNGIRLAEDPDFALRVRVAGVNTVYLSFDGVDEKTNPKNHHEIPKILENCRRAQLGLVLVPTVIKGVNDHQLGDIIRFAAENIDIVRGVNFQPVSLVGSMPRKEREQFRITIPDCIKAIEEQTNGEIGREDFYPVPSVVPISRFVEALTGQPQYELTTHFACGMATYIFKDNGRLIPITRFVDVEGLFEF”, the “soluble on expression in E. coli” value was “not soluble”.
With “AHHHHHHGSKLEIRDLSVGYDKPVLERITMTIEKGNVVNFHGPNGIGKTTLLKTISTYLKPLKGEIIYNGVPITKVKGKIFFLPEEIIVPRKISVEDYLKAVASLYGVKVNKNEIMDALESVEVLDLKKKLGELSQGTIRRVQLASTLLVNAEIYVLDDPVVAIDEDSKHKVLKSILEILKEKGIVIISSREELSYCDVNENLHKYSTKIDKKD” the “soluble on expression in E. coli” value was “soluble”.
In the case of “MQSAAVSGRLICNGRPAVDVKLKLYENEIFFDRLMEEGRTDSNGQFRVLGSKREITTIDPKLNVYHKCNYNGLCDQKFTIHIPKDYVTSGSQPSRTFDIGTLNLANNFPGQSTDCLN”, the “soluble on expression in E. coli” value is reported as “not soluble”.
For “MPSTVEKMETEEYGKPDPNRLTTKLFAEYDALHEKQQNGMDEKKTMELLEPSEVFEIYSPATMEIISIAKEEGDILSDQSLKFLNEALRYTVVPRGYSPQGVDARTTVKNVATITKDLVDIGKIVFEKFPKYLQFFGPFGSLLKDILDMTKPEKKDPVLEELGNLKSQLESLSQKMVVQFDELKAFMVEKDFYNNYAHKASLLFDYMIDCVATIDTKTKERFEECYNEIKPERYVRDMLIKLESDVTNPLKVSMAGDELTSKATFQKWKDVLNSTLSQFLLLECFAMGFLHPKDESDSKKIIEKITYYTTLVEQWEKHYLNDRPYWPKLKKYVERIQGEGSFDKDEDMATELKKGLDSILTEDNFYLYVFEKNVHYEIHVVKPEMVFVSTNRGKFSVIISRAFEHSEYTCGQYWKKLDNIMYRRIERSIWYALETHMKEFVQWAVASYAKNDFKGCSYFLAFSSRNVAVRWTRKHGAEKGPGFINWDGQLTVFNVTTGTWNMLYMVGE”, the “soluble on expression in E. coli” value was “not soluble”.
For “MTAPRDVRVRTLSLLLPEPGRKGRLAAISAAVCHRRDMATYRYLDKDRNVLEEQDFGTVQDAEEHRLSVLGAEIIEEVEDSGTPES”, the “soluble on expression in E. coli” value was “not soluble”.
With “MRYGEKEIKEFDVENMEIWPNDAKNDYIIKITLPEFMCCCPRSGYPDFATIYLEYMPDKFVVELKAIKLYINTFMYRNVSHEASINEIYNTLKDKLKPKWIKVVGDFNPRGNVHTVIECRSDMVVPK” the “soluble on expression in E. coli” value was “not soluble”.
For “MVCKVCGQKAQVEMRSRGLALCREHYLDWFVKETERAIRRHRMLLPGERVLVAVSGGKDSLALWDVLSRLGYQAVGLHIELGIGEYSKRSLEVTQAFARERGLELLVVDLKEAYGFGVPELARLSGRVACSACGLSKRYIINQVAVEEGFRVVATGHNLDDEAAVLFGNLLNPQEETLSRQGPVLPEKPGLAARVKPFYRFSEREVLSYTLLRGIRYLHEECPNAKGAKSLLYKEALNLVERSMPGAKLRFLEGFLEKIRPRLDVGEEVALKECERCGYPTTGAVCAFCRMWDAVYRRAKKRRLLPEEAVFHPKAPVARG”, the “soluble on expression in E. coli” value was “soluble”.
For “MTIKNVICDIDGVLMHDNVAVPGAAEFLHGIMDKGLPLVLLTNYPSQTGQDLANRFATAGVDVPDSVFYTSAMATADFLRRQEGKKAYVVGEGALIHELYKAGFTITDVNPDFVIVGETRSYNWDMMHKAAYFVANGARFIATNPDTHGRGFYPACGALCAGIEKISGRKPFYVGKPSPWIIRAALNKMQAHSEETVIVGDNLRTDILAGFQAGLETILVLSGVSSLDDIDSMPFRPSWIYPSVAEIDVILEHHHHHH”, the “soluble on expression in E. coli” value was “not soluble”.
With “MSSRKNFSRLTWFRKQRKAVVSSNDKKMPNGILEEQEQQRVMLLSRSPSGPKKFFPIPVEHLEEEIRVRSADDCKRFREEFNSLPSGHIQGTFELANKEENREKNRYPNILPNDHCRVILSQVDGIPCSDYINASYIDGYKEKNKFIAAQGPKQETVNDFWRMVWEQRSATIVMLTNLKERKEEKCYQYWPDQGCWTYGNIRVCVEDCVVLVDYTIRKFCIHPQLPDSCKAPRLVSQLHFTSWPDFGVPFTPIGMLKFLKKVKTLNPSHAGPIVVHCSAGVGRTGTFIVIDAMMDMIHSEQKVDVFEFVSRIRNQRPQMVQTDVQYTFIYQALLEYYLYGDTELDVSSLERHLQTLHSTATHFDKIGLEEEFRKLTNVRIMKENMRTGNLPANMKKARVIQIIPYDFNRVILSMKRGQEFTDYINASFIDGYRQKDYFMATQGPLAHTGEDFWRMVWEWKSHTIVMLTEVQEREQDKCYQYWPTEGSVTHGDITIEIKSDTLSEAISVRDFLVTFKQPLARQEEQVRMVRQFHFHGWPEVGIPAEGKGIIDLIAAVQKQQQQTGNHPITVHCSAGAGRTGTFIALSNILERVKAEGLLDVFQAVKSLRLQRPHMVQTLEQYEFCYKVVQDFIDIFSDYANFK” the “soluble on expression in E. coli” value was “soluble”.
In the case of “MDRRSQILTIAGHLFSQRGYHATSMRELARHLNLQGGSLYAHIQSKEELLLEVVRQAAERFQKVLEELPSGDPVTRMKALVKGHLRVIAEELPRATVFFHEWKHLSPPLLEEAKALRRRYEEGVQAVVEEGVRAGVFRVENVRLATLFVLSALNWTYQWYRPDGPLSLEALAEAYAELVLKALGVAASPEGERREEGGEDGEA”, the “soluble on expression in E. coli” value is reported as “soluble”.
With “ILAVLFANSVGNVLIERFNGVPAEERLHWRSFLVKLGADNLKGVKNEELLVACHKSVYIVYTMLGDVSIFLVGKDEYDELALAETIYIITAAVKDVCGKPPTERVFLDKYGRICLCLDEIVW” the “soluble on expression in E. coli” value was “not soluble”.
In the case of “MSLSDPVKVFLADNLRRYDAAVLVMSLPGFYRISADLMIEKNHDVPVVVVDDAGRFAVAASAGHAGGSDELAAYIAGIIDGQAVITDGIESGGRVSVEKIARSLLATIANPECIIPVNAAIANGEHVPVIFRSKKRSMLRRLFAESSDEKHGYAIVLADEPGEDANTCYLIPDDISIGIGFNSSADAELISACLERFLEEAGLAWEDIDYVSSIKDLPDVSIIRKGTRFVKFDPADIRDIDPEMLTHVSDKARDVFGVPGVAEPCAIRSLGPGSKIFLPFRSCGRSVTLAAARREGHHHHHH”, the “soluble on expression in E. coli” value is reported as “soluble”.
